Starred links: 1 amine or outer side, 2 acyl side, 3 side chain; linkers in the order of their positions; H or OH if unused. Non-standard residues stand in square brackets, D forms with d. Primed or numbered codes have the meaning given here. *: point of attachment. NPipG = 2-(piperidin-4-ylamino)acetic acid, O=C(CN(C1CCN([*:3])CC1)[*:1])[*:2]; AC4Abu = α-carboxy-4-aminobutyric acid, O=C(C(CCN[*:1])C(=O)[*:3])[*:2]; Oic = O=C(O)[C@@H]1C[C@@H]2CCCC[C@@H]2N1; Phe(4-Cl) = N[C@@H](Cc1ccc(Cl)cc1)C(=O)O; Phe(4-F) = N[C@@H](Cc1ccc(F)cc1)C(=O)O; γGlu = O=C(O)[C@H](CCC(=O)[*:2])N[*:1]; d(β3hF) = N[C@@H](CC(=O)O)Cc1ccccc1; Igl = N[C@H](C(=O)O)C1Cc2ccccc2C1; NMeR = CN[C@@H](CCCNC(=N)N)C(=O)O; Palmitoyl = CCCCCCCCCCCCCCCC(=O)*; 3Pal = N[C@@H](Cc1cccnc1)C(=O)O; Cha = N[C@@H](CC1CCCCC1)C(=O)O; αMeOrn = C[C@](N)(CCCN)C(=O)O; β3hP = O=C(O)C[C@@H]1CCCN1; Nle = CCCC[C@H](N)C(=O)O; Dab = NCC[C@H](N)C(=O)O; Pip′ = not defined here; Dap = NC[C@H](N)C(=O)O; AEEA = NCCOCCOCC(=O)O; Aib = CC(C)(N)C(=O)O; NPrGly = CCCNCC(=O)O; BLeu = β-leucine
T1: human APJ receptor (human, UniProt P35414 1-380)
T1 sequence (looked up): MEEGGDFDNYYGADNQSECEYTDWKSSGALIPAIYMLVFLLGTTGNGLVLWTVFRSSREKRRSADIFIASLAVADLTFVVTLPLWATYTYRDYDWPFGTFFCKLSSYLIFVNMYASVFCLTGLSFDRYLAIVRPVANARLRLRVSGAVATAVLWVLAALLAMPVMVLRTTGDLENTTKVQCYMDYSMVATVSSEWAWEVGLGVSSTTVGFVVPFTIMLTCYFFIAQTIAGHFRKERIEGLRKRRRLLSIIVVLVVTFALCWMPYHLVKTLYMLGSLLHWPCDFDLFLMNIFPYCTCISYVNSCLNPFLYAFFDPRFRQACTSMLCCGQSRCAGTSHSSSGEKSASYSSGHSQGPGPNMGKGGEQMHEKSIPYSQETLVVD

T2: rat APJ receptor (rat, UniProt Q9JHG3 1-377)
T2 sequence (looked up): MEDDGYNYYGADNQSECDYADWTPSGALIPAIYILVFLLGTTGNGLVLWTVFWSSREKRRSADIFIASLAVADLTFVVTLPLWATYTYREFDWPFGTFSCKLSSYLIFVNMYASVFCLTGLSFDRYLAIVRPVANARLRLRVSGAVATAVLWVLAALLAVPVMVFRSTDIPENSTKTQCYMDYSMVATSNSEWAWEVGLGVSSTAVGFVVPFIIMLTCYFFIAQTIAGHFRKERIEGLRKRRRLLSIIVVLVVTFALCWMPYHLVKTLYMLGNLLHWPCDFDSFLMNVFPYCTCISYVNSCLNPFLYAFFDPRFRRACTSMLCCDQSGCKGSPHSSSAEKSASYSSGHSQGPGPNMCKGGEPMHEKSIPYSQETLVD

B1: SEQ ID NO: 621 (peptide)
peptide: Palmitoyl-[γGlu][AEEA][AEEA][dQ]RP[NMeR][Cha]SH[Phe(4-Cl)]G[Oic][Nle][β3hP][d(β3hF)]-OH
SMILES: CCCCCCCCCCCCCCCC(=O)N[C@@H](CCC(=O)NCCOCCOCC(=O)NCCOCCOCC(=O)N[C@H](CCC(N)=O)C(=O)N[C@@H](CCCNC(=N)N)C(=O)N1CCC[C@H]1C(=O)N(C)[C@@H](CCCNC(=N)N)C(=O)N[C@@H](CC1CCCCC1)C(=O)N[C@@H](CO)C(=O)N[C@@H](Cc1c[nH]cn1)C(=O)N[C@@H](Cc1ccc(Cl)cc1)C(=O)NCC(=O)N1[C@H](C(=O)N[C@@H](CCCC)C(=O)N2CCC[C@H]2CC(=O)N[C@@H](CC(=O)O)Cc2ccccc2)C[C@@H]2CCCC[C@@H]21)C(=O)O
B2: SEQ ID NO: 623 (peptide)
peptide: Palmitoyl-[γGlu][AEEA][AEEA][dQ]RP[NMeR][Cha]SH[Dab]G[Oic][Nle][β3hP][d(β3hF)]-OH
SMILES: CCCCCCCCCCCCCCCC(=O)N[C@@H](CCC(=O)NCCOCCOCC(=O)NCCOCCOCC(=O)N[C@H](CCC(N)=O)C(=O)N[C@@H](CCCNC(=N)N)C(=O)N1CCC[C@H]1C(=O)N(C)[C@@H](CCCNC(=N)N)C(=O)N[C@@H](CC1CCCCC1)C(=O)N[C@@H](CO)C(=O)N[C@@H](Cc1c[nH]cn1)C(=O)N[C@@H](CCN)C(=O)NCC(=O)N1[C@H](C(=O)N[C@@H](CCCC)C(=O)N2CCC[C@H]2CC(=O)N[C@@H](CC(=O)O)Cc2ccccc2)C[C@@H]2CCCC[C@@H]21)C(=O)O
B3: SEQ ID NO: 625 (peptide)
peptide: Palmitoyl-[γGlu][AEEA][AEEA][dQ]RP[NMeR][Cha]SH[Igl]G[Oic][Nle][β3hP][d(β3hF)]-OH
SMILES: CCCCCCCCCCCCCCCC(=O)N[C@@H](CCC(=O)NCCOCCOCC(=O)NCCOCCOCC(=O)N[C@H](CCC(N)=O)C(=O)N[C@@H](CCCNC(=N)N)C(=O)N1CCC[C@H]1C(=O)N(C)[C@@H](CCCNC(=N)N)C(=O)N[C@@H](CC1CCCCC1)C(=O)N[C@@H](CO)C(=O)N[C@@H](Cc1c[nH]cn1)C(=O)N[C@H](C(=O)NCC(=O)N1[C@H](C(=O)N[C@@H](CCCC)C(=O)N2CCC[C@H]2CC(=O)N[C@@H](CC(=O)O)Cc2ccccc2)C[C@@H]2CCCC[C@@H]21)C1Cc2ccccc2C1)C(=O)O
B4: SEQ ID NO: 619 (peptide)
peptide: Palmitoyl-[γGlu][AEEA][AEEA][dQ]RP[NMeR][Cha]SH[αMeOrn]G[Oic][Nle][β3hP][d(β3hF)]-OH
SMILES: CCCCCCCCCCCCCCCC(=O)N[C@@H](CCC(=O)NCCOCCOCC(=O)NCCOCCOCC(=O)N[C@H](CCC(N)=O)C(=O)N[C@@H](CCCNC(=N)N)C(=O)N1CCC[C@H]1C(=O)N(C)[C@@H](CCCNC(=N)N)C(=O)N[C@@H](CC1CCCCC1)C(=O)N[C@@H](CO)C(=O)N[C@@H](Cc1c[nH]cn1)C(=O)N[C@@](C)(CCCN)C(=O)NCC(=O)N1[C@H](C(=O)N[C@@H](CCCC)C(=O)N2CCC[C@H]2CC(=O)N[C@@H](CC(=O)O)Cc2ccccc2)C[C@@H]2CCCC[C@@H]21)C(=O)O
B5: SEQ ID NO: 620 (peptide)
peptide: Palmitoyl-[γGlu][AEEA][AEEA][dQ]RP[NMeR][Cha]SH[3Pal]G[Oic][Nle][β3hP][d(β3hF)]-OH
SMILES: CCCCCCCCCCCCCCCC(=O)N[C@@H](CCC(=O)NCCOCCOCC(=O)NCCOCCOCC(=O)N[C@H](CCC(N)=O)C(=O)N[C@@H](CCCNC(=N)N)C(=O)N1CCC[C@H]1C(=O)N(C)[C@@H](CCCNC(=N)N)C(=O)N[C@@H](CC1CCCCC1)C(=O)N[C@@H](CO)C(=O)N[C@@H](Cc1c[nH]cn1)C(=O)N[C@@H](Cc1cccnc1)C(=O)NCC(=O)N1[C@H](C(=O)N[C@@H](CCCC)C(=O)N2CCC[C@H]2CC(=O)N[C@@H](CC(=O)O)Cc2ccccc2)C[C@@H]2CCCC[C@@H]21)C(=O)O
B6: SEQ ID NO: 622 (peptide)
peptide: Palmitoyl-[γGlu][AEEA][AEEA][dQ]RP[NMeR][Cha]SH[Phe(4-F)]G[Oic][Nle][β3hP][d(β3hF)]-OH
SMILES: CCCCCCCCCCCCCCCC(=O)N[C@@H](CCC(=O)NCCOCCOCC(=O)NCCOCCOCC(=O)N[C@H](CCC(N)=O)C(=O)N[C@@H](CCCNC(=N)N)C(=O)N1CCC[C@H]1C(=O)N(C)[C@@H](CCCNC(=N)N)C(=O)N[C@@H](CC1CCCCC1)C(=O)N[C@@H](CO)C(=O)N[C@@H](Cc1c[nH]cn1)C(=O)N[C@@H](Cc1ccc(F)cc1)C(=O)NCC(=O)N1[C@H](C(=O)N[C@@H](CCCC)C(=O)N2CCC[C@H]2CC(=O)N[C@@H](CC(=O)O)Cc2ccccc2)C[C@@H]2CCCC[C@@H]21)C(=O)O
B7: SEQ ID NO: 633 (peptide)
peptide: Palmitoyl-[γGlu][AEEA][AEEA][dQ]RP[NMeR][Cha]SH[NPipG]G[Oic][Nle][β3hP][d(β3hF)]-OH
SMILES: CCCCCCCCCCCCCCCC(=O)N[C@@H](CCC(=O)NCCOCCOCC(=O)NCCOCCOCC(=O)N[C@H](CCC(N)=O)C(=O)N[C@@H](CCCNC(=N)N)C(=O)N1CCC[C@H]1C(=O)N(C)[C@@H](CCCNC(=N)N)C(=O)N[C@@H](CC1CCCCC1)C(=O)N[C@@H](CO)C(=O)N[C@@H](Cc1c[nH]cn1)C(=O)N(CC(=O)NCC(=O)N1[C@H](C(=O)N[C@@H](CCCC)C(=O)N2CCC[C@H]2CC(=O)N[C@@H](CC(=O)O)Cc2ccccc2)C[C@@H]2CCCC[C@@H]21)C1CCNCC1)C(=O)O
B8: SEQ ID NO: 624 (peptide)
peptide: Palmitoyl-[γGlu][AEEA][AEEA][dQ]RP[NMeR][Cha]SH[Dap]G[Oic][Nle][β3hP][d(β3hF)]-OH
SMILES: CCCCCCCCCCCCCCCC(=O)N[C@@H](CCC(=O)NCCOCCOCC(=O)NCCOCCOCC(=O)N[C@H](CCC(N)=O)C(=O)N[C@@H](CCCNC(=N)N)C(=O)N1CCC[C@H]1C(=O)N(C)[C@@H](CCCNC(=N)N)C(=O)N[C@@H](CC1CCCCC1)C(=O)N[C@@H](CO)C(=O)N[C@@H](Cc1c[nH]cn1)C(=O)N[C@@H](CN)C(=O)NCC(=O)N1[C@H](C(=O)N[C@@H](CCCC)C(=O)N2CCC[C@H]2CC(=O)N[C@@H](CC(=O)O)Cc2ccccc2)C[C@@H]2CCCC[C@@H]21)C(=O)O
B9: SEQ ID NO: 616 (peptide)
peptide: Palmitoyl-[γGlu][AEEA][AEEA][dQ]RP[NMeR][Cha]S[Dap]KG[Oic][Nle][β3hP][d(β3hF)]-OH
SMILES: CCCCCCCCCCCCCCCC(=O)N[C@@H](CCC(=O)NCCOCCOCC(=O)NCCOCCOCC(=O)N[C@H](CCC(N)=O)C(=O)N[C@@H](CCCNC(=N)N)C(=O)N1CCC[C@H]1C(=O)N(C)[C@@H](CCCNC(=N)N)C(=O)N[C@@H](CC1CCCCC1)C(=O)N[C@@H](CO)C(=O)N[C@@H](CN)C(=O)N[C@@H](CCCCN)C(=O)NCC(=O)N1[C@H](C(=O)N[C@@H](CCCC)C(=O)N2CCC[C@H]2CC(=O)N[C@@H](CC(=O)O)Cc2ccccc2)C[C@@H]2CCCC[C@@H]21)C(=O)O

Each binder was assayed against T1, human APJ receptor (assay: cell-based or functional assay).

Row | Binder | EC50 Human APJ Receptor [nM]
1 | B1 | 16.4
2 | B2 | 1.43
3 | Palmitoyl-[AC4Abu][AEEA][AEEA][dQ]RP[NMeR][Cha]S[NPrGly]KG[Pip′][Nle][Aib][Phe(4-Cl)]-OH [SEQ ID NO: 644] | 1.4
4 | B3 | 11.1
5 | Palmitoyl-[γGlu][AEEA][AEEA][dQ]RP[NMeR][Cha][BLeu]HKG[Oic][Nle][β3hP][d(β3hF)]-OH [SEQ ID NO: 615] | 9.42
6 | B4 | 26.2
7 | B5 | 7.42
8 | Palmitoyl-[AC4Abu][AEEA][AEEA][dQ]RP[NMeR][Cha][NPrGly]HKG[Pip′][Nle][Aib][Phe(4-Cl)]-OH [SEQ ID NO: 643] | 0.463
9 | B6 | 11.8
10 | B7 | 10.7
11 | B8 | 21.1
12 | B9 | 2.75

These binders were tested against T2, rat APJ receptor (assay: cell-based or functional assay).

Row | Binder | EC50 Rat APJ Receptor [nM]
13 | B1 | 26.1
14 | B2 | 9.16
15 | Palmitoyl-[AC4Abu][AEEA][AEEA][dQ]RP[NMeR][Cha]S[NPrGly]KG[Pip′][Nle][Aib][Phe(4-Cl)]-OH [SEQ ID NO: 644] | 4.2
16 | B3 | 20
17 | Palmitoyl-[γGlu][AEEA][AEEA][dQ]RP[NMeR][Cha][BLeu]HKG[Oic][Nle][β3hP][d(β3hF)]-OH [SEQ ID NO: 615] | 23.2
18 | B4 | 125
19 | B5 | 14.9
20 | Palmitoyl-[AC4Abu][AEEA][AEEA][dQ]RP[NMeR][Cha][NPrGly]HKG[Pip′][Nle][Aib][Phe(4-Cl)]-OH [SEQ ID NO: 643] | 3.79
21 | B6 | 19.7
22 | B7 | > 4170
23 | B8 | 99.7
24 | B9 | 17.2

Source: patent publication US10941182 (Amgen, dated 2021)
